The values below come from IntAct's records for PubMed 25910212.

B1: U4/U6 small nuclear ribonucleoprotein Prp31 (Homo sapiens), Q8WWY3 (parent)
chain: MSLADELLADLEEAAEEEEGGSYGEEEEEPAIEDVQEETQLDLSGDSVKTIAKLWDSKMFAEIMMKIEEYISKQAKASEVMGPVEAAPEYRVIVDANNLTVEIENELNIIHKFIRDKYSKRFPELESLVPNALDYIRTVKELGNSLDKCKNNENLQQILTNATIMVVSVTASTTQGQQLSEEELERLEEACDMALELNASKHRIYEYVESRMSFIAPNLSIIIGASTAAKIMGVAGGLTNLSKMPACNIMLLGAQRKTLSGFSSTSVLPHTGYIYHSDIVQSLPPDLRRKAARLVAAKCTLAARVDSFHESTEGKVGYELKDEIERKFDKWQEPPPVKQVKPLPAPLDGQRKKRGGRRYRKMKERLGLTEIRKQANRMSFGEIEEDAYQEDLGFSLGHLGKSGSGRVRQTQVNEATKARISKTLQRTLQKQSVVYGGKSTIRDRSSGTASSVAFTPLQGLEIVNPQAAEKKVAEANQKYFSSMAEFLKVKGEKSGLMST
partner: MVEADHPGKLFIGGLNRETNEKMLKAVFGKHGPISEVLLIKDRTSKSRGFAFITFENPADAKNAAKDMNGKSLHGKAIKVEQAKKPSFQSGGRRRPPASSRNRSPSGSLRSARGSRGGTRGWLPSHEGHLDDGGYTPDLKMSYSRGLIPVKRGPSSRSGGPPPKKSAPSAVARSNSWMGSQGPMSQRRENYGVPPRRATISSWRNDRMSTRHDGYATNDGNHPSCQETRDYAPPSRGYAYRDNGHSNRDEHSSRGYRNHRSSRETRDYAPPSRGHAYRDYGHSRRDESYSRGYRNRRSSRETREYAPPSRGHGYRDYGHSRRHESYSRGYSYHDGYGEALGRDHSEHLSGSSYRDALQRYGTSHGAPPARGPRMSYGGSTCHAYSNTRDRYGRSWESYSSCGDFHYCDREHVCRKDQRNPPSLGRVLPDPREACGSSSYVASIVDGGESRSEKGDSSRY
B2: Lipopolysaccharide-induced tumor necrosis factor-alpha factor (Homo sapiens), Q99732 (parent)
chain: MSVPGPYQAATGPSSAPSAPPSYEETVAVNSYYPTPPAPMPGPTTGLVTGPDGKGMNPPSYYTQPAPIPNNNPITVQTVYVQHPITFLDRPIQMCCPSCNKMIVSQLSYNAGALTWLSCGSLCLLGCIAGCCFIPFCVDALQDVDHYCPNCRALLGTYKRL
partner: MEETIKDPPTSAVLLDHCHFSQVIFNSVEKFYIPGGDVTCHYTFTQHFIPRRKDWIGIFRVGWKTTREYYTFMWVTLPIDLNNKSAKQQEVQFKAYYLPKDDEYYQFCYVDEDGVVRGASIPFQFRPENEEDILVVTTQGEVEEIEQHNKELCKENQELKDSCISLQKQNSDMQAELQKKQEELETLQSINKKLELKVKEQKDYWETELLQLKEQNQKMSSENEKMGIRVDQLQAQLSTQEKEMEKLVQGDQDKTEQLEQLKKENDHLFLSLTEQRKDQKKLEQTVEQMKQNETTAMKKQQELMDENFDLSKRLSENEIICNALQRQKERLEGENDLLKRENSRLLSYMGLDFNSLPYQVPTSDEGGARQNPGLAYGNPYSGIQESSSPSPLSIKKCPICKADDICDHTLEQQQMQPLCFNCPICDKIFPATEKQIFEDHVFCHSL
B3: U4/U6 small nuclear ribonucleoprotein Prp31 (Homo sapiens), Q8WWY3 (parent)
chain: B1 chain
partner: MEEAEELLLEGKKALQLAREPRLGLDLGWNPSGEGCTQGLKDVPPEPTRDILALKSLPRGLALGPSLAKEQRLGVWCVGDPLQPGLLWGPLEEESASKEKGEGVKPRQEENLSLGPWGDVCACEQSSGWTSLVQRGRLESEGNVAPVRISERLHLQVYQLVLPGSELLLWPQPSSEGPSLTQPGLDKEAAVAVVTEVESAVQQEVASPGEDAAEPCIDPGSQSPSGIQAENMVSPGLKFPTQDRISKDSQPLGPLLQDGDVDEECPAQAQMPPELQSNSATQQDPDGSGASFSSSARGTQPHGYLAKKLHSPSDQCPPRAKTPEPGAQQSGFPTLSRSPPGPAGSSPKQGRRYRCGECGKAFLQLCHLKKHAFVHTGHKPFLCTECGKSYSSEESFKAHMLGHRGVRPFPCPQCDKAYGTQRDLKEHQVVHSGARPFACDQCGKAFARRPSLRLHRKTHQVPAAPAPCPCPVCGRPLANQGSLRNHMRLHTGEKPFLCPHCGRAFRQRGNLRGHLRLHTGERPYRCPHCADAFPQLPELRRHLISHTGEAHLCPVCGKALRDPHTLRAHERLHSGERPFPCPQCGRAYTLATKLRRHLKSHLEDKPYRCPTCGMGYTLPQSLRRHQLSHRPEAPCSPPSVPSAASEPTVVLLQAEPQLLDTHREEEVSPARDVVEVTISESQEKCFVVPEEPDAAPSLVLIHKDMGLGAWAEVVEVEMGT
B4: U4/U6 small nuclear ribonucleoprotein Prp3 (Homo sapiens), O43395 (parent)
chain: MALSKRELDELKPWIEKTVKRVLGFSEPTVVTAALNCVGKGMDKKKAADHLKPFLDDSTLRFVDKLFEAVEEGRSSRHSKSSSDRSRKRELKEVFGDDSEISKESSGVKKRRIPRFEEVEEEPEVIPGPPSESPGMLTKLQIKQMMEAATRQIEERKKQLSFISPPTPQPKTPSSSQPERLPIGNTIQPSQAATFMNDAIEKARKAAELQARIQAQLALKPGLIGNANMVGLANLHAMGIAPPKVELKDQTKPTPLILDEQGRTVDATGKEIELTHRMPTLKANIRAVKREQFKQQLKEKPSEDMESNTFFDPRVSIAPSQRQRRTFKFHDKGKFEKIAQRLRTKAQLEKLQAEISQAARKTGIHTSTRLALIAPKKELKEGDIPEIEWWDSYIIPNGFDLTEENPKREDYFGITNLVEHPAQLNPPVDNDTPVTLGVYLTKKEQKKLRRQTRREAQKELQEKVRLGLMPPPEPKVRISNLMRVLGTEAVQDPTKVEAHVRAQMAKRQKAHEEANAARKLTAEQRKVKKIKKLKEDISQGVHISVYRVRNLSNPAKKFKIEANAGQLYLTGVVVLHKDVNVVVVEGGPKAQKKFKRLMLHRIKWDEQTSNTKGDDDEESDEEAVKKTNKCVLVWEGTAKDRSFGEMKFKQCPTENMAREHFKKHGAEHYWDLALSESVLESTD
partner: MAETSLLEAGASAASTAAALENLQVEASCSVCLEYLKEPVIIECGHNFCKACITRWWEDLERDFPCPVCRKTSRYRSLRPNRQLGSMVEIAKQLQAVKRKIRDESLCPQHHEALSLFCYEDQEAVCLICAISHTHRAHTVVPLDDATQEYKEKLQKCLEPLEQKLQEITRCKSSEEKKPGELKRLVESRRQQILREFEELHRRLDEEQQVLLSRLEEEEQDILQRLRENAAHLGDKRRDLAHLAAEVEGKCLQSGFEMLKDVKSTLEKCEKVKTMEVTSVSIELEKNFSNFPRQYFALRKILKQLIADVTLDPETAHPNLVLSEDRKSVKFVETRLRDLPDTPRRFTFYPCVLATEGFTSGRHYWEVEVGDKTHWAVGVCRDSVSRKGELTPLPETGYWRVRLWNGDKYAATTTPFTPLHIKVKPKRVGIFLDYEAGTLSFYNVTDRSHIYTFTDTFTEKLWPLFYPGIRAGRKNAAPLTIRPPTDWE
B5: Corrinoid adenosyltransferase MMAB (Homo sapiens), Q96EY8 (parent)
chain: MAVCGLGSRLGLGSRLGLRGCFGAARLLYPRFQSRGPQGVEDGDRPQPSSKTPRIPKIYTKTGDKGFSSTFTGERRPKDDQVFEAVGTTDELSSAIGFALELVTEKGHTFAEELQKIQCTLQDVGSALATPCSSAREAHLKYTTFKAGPILELEQWIDKYTSQLPPLTAFILPSGGKISSALHFCRAVCRRAERRVVPLVQMGETDANVAKFLNRLSDYLFTLARYAAMKEGNQEKIYMKNDPSAESEGL
partner: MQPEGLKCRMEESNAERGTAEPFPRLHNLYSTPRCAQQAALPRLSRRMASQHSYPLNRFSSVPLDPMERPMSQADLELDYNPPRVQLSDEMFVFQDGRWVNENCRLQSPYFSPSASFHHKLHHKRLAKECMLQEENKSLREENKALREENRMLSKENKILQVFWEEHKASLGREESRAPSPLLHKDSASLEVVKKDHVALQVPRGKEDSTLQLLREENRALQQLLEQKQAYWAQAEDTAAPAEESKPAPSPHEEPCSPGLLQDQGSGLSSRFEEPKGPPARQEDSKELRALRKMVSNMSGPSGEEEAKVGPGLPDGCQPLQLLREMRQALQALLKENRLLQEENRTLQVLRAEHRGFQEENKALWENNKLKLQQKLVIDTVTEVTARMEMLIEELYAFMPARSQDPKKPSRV

Variants of B1 are the subject of the first assay. As to conditions: with RBMY1A1, P0DJD3-2.
In the case of L107V, the “effect of a mutation on the interaction” value is on record as “with no effect”.

A further assay covers variants of B2. As to conditions: with caco2_human CALCOCO2, Q13137.
For A111G, the “effect of a mutation on the interaction” value was “disrupting interaction strength”. The same measure, in the same setting: then I92V, with “with no effect”. Same read-out and setting: with G112S the entry was “disrupting interaction strength”.

The variants in the next assay derive from B3. The note with it: with zn408_human ZNF408, Q9H9D4.
For the variant L107V, the “effect of a mutation on the interaction” value is given as “with no effect”.

Variants of B4 are the subject of the next assay. As to conditions: with TRIM39, Q9HCM9-2.
For A489D, the “effect of a mutation on the interaction” value was “disrupting interaction strength”. Still for that read-out and setting: then P493S, with “disrupting interaction strength”.

As to T494M, the “effect of a mutation on the interaction” value was “disrupting interaction strength”.

Variants of B5 are the subject of the next assay. The note with it: with CBY2, Q8NA61-2.
For R186Q, the “effect of a mutation on the interaction” value was “with no effect”. Take I96T: the “effect of a mutation on the interaction” value was “with no effect”.
